# Results as given in patent US20240199745A1, “ANTI-EGFR ANTIBODY DRUG CONJUGATES” (priority 2016, published 2024).
# Numbering of substitutions follows the chain as printed.
# B1: AbG-SR (antibody, human IgG1, kappa, V domains shown)
# VH: EVQLQESGPGLVKPSQTLSLTCTVSGYSISNDFAWNWIRQLPGKGLEWMGYISYKGNTRYQPSLKSRITISRDTSKNQFFLKLNSVTAADTATYYCVTASRGLPYWGQGTLVTVSS
# VL: DIQMTQSPSSMSVSVGDRVTITCHSSQDITYNIGWLQQKPGKSFKGLIYHGANLDDGVPSRFSGSGSGTDYTLTISSLQPEDFATYYCVQYDEFPWTFGGGTKLEIKR
# modifications: synthon SR on reduced interchain cysteines; average DAR 2.8 per ADC
# B2: AbG-YG (antibody, human IgG1, kappa, V domains shown)
# VH: B1 VH
# VL: B1 VL
# modifications: synthon YG on reduced interchain cysteines; average DAR 3.7 per ADC
# B3: AbG-KZ (antibody, human IgG1, kappa, V domains shown)
# VH: B1 VH
# VL: B1 VL
# modifications: synthon KZ on reduced interchain cysteines; average DAR 2.7 per ADC
# B4: AbK-ZT (antibody, human IgG1, kappa, V domains shown)
# VH: B1 VH with N31R, L41P, K55N, L103F, Y105W
# VL: B1 VL with I33V, A52S, D56H, E93D
# modifications: synthon ZT on reduced interchain cysteines; average DAR 1.3 per ADC
# B5: AbA-AAD (antibody, human IgG1, kappa, V domains shown)
# VH: B1 VH with N31R, L41P, K55N, L103F
# VL: B1 VL with T30N, Y31S, A52T, D92A, E93Q
# modifications: synthon AAD on reduced interchain cysteines; average DAR 3.3 per ADC
# B6: AbK-ZZ (antibody, human IgG1, kappa, V domains shown)
# VH: B1 VH with N31R, L41P, K55N, L103F, Y105W
# VL: B1 VL with I33V, A52S, D56H, E93D
# modifications: synthon ZZ on reduced interchain cysteines; average DAR 1.9 per ADC
# B7: AbK-XW (antibody, human IgG1, kappa, V domains shown)
# VH: B1 VH with N31R, L41P, K55N, L103F, Y105W
# VL: B1 VL with I33V, A52S, D56H, E93D
# modifications: synthon XW on reduced interchain cysteines; average DAR 2.8 per ADC
# B8: AbK-SE (antibody, human IgG1, kappa, V domains shown)
# VH: B1 VH with N31R, L41P, K55N, L103F, Y105W
# VL: B1 VL with I33V, A52S, D56H, E93D
# modifications: synthon SE on reduced interchain cysteines; average DAR 2.7 per ADC
# B9: AbK-SR (antibody, human IgG1, kappa, V domains shown)
# VH: B1 VH with N31R, L41P, K55N, L103F, Y105W
# VL: B1 VL with I33V, A52S, D56H, E93D
# modifications: synthon SR on reduced interchain cysteines; average DAR 2.3 per ADC
# B10: AbK-YG (antibody, human IgG1, kappa, V domains shown)
# VH: B1 VH with N31R, L41P, K55N, L103F, Y105W
# VL: B1 VL with I33V, A52S, D56H, E93D
# modifications: synthon YG on reduced interchain cysteines; average DAR 0.9 per ADC
# B11: AbK-KZ (antibody, human IgG1, kappa, V domains shown)
# VH: B1 VH with N31R, L41P, K55N, L103F, Y105W
# VL: B1 VL with I33V, A52S, D56H, E93D
# modifications: synthon KZ on reduced interchain cysteines; average DAR 2.3 per ADC
# B12: AbB-CZ (antibody, human IgG1, kappa, V domains shown)
# VH: B1 VH with L41P, L103F, Y105W
# VL: B1 VL with T30N, Y31S, A52T, D92A, E93Q
# modifications: synthon CZ on reduced interchain cysteines; average DAR 3.5 per ADC
# B13: AbB-TX (antibody, human IgG1, kappa, V domains shown)
# VH: B1 VH with L41P, L103F, Y105W
# VL: B1 VL with T30N, Y31S, A52T, D92A, E93Q
# modifications: synthon TX on reduced interchain cysteines; average DAR 2.2 per ADC
# B14: AbB-TV (antibody, human IgG1, kappa, V domains shown)
# VH: B1 VH with L41P, L103F, Y105W
# VL: B1 VL with T30N, Y31S, A52T, D92A, E93Q
# modifications: synthon TV on reduced interchain cysteines; average DAR 2.3 per ADC
# B15: AbB-YY (antibody, human IgG1, kappa, V domains shown)
# VH: B1 VH with L41P, L103F, Y105W
# VL: B1 VL with T30N, Y31S, A52T, D92A, E93Q
# modifications: synthon YY on reduced interchain cysteines; average DAR 2.2 per ADC
# B16: AbB-AAD (antibody, human IgG1, kappa, V domains shown)
# VH: B1 VH with L41P, L103F, Y105W
# VL: B1 VL with T30N, Y31S, A52T, D92A, E93Q
# modifications: synthon AAD on reduced interchain cysteines; average DAR 2.7 per ADC
# B17: AbG-CZ (antibody, human IgG1, kappa, V domains shown)
# VH: B1 VH
# VL: B1 VL
# modifications: synthon CZ on reduced interchain cysteines; average DAR 3.4 per ADC
# B18: AbG-TX (antibody, human IgG1, kappa, V domains shown)
# VH: B1 VH
# VL: B1 VL
# modifications: synthon TX on reduced interchain cysteines; average DAR 3.3 per ADC
# B19: AbA-TX (antibody, human IgG1, kappa, V domains shown)
# VH: B1 VH with N31R, L41P, K55N, L103F
# VL: B1 VL with T30N, Y31S, A52T, D92A, E93Q
# modifications: synthon TX on reduced interchain cysteines; average DAR 2.8 per ADC
# B20: AbG-TV (antibody, human IgG1, kappa, V domains shown)
# VH: B1 VH
# VL: B1 VL
# modifications: synthon TV on reduced interchain cysteines; average DAR 3.7 per ADC
# B21: AbG-YY (antibody, human IgG1, kappa, V domains shown)
# VH: B1 VH
# VL: B1 VL
# modifications: synthon YY on reduced interchain cysteines; average DAR 2.2 per ADC
# B22: AbG-AAA (antibody, human IgG1, kappa, V domains shown)
# VH: B1 VH
# VL: B1 VL
# modifications: synthon AAA on reduced interchain cysteines; average DAR 1.9 per ADC
# B23: AbG-AAD (antibody, human IgG1, kappa, V domains shown)
# VH: B1 VH
# VL: B1 VL
# modifications: synthon AAD on reduced interchain cysteines; average DAR 3.4 per ADC
# B24: AbK-CZ (antibody, human IgG1, kappa, V domains shown)
# VH: B1 VH with N31R, L41P, K55N, L103F, Y105W
# VL: B1 VL with I33V, A52S, D56H, E93D
# modifications: synthon CZ on reduced interchain cysteines; average DAR 3.4 per ADC
# B25: AbK-TX (antibody, human IgG1, kappa, V domains shown)
# VH: B1 VH with N31R, L41P, K55N, L103F, Y105W
# VL: B1 VL with I33V, A52S, D56H, E93D
# modifications: synthon TX on reduced interchain cysteines; average DAR 2.2 per ADC
# B26: AbK-TV (antibody, human IgG1, kappa, V domains shown)
# VH: B1 VH with N31R, L41P, K55N, L103F, Y105W
# VL: B1 VL with I33V, A52S, D56H, E93D
# modifications: synthon TV on reduced interchain cysteines; average DAR 2.4 per ADC
# B27: AbK-YY (antibody, human IgG1, kappa, V domains shown)
# VH: B1 VH with N31R, L41P, K55N, L103F, Y105W
# VL: B1 VL with I33V, A52S, D56H, E93D
# modifications: synthon YY on reduced interchain cysteines; average DAR 1.7 per ADC
# B28: AbK-AAA (antibody, human IgG1, kappa, V domains shown)
# VH: B1 VH with N31R, L41P, K55N, L103F, Y105W
# VL: B1 VL with I33V, A52S, D56H, E93D
# modifications: synthon AAA on reduced interchain cysteines; average DAR 1.6 per ADC
# B29: AbK-AAD (antibody, human IgG1, kappa, V domains shown)
# VH: B1 VH with N31R, L41P, K55N, L103F, Y105W
# VL: B1 VL with I33V, A52S, D56H, E93D
# modifications: synthon AAD on reduced interchain cysteines; average DAR 2.8 per ADC
# B30: AbA-TV (antibody, human IgG1, kappa, V domains shown)
# VH: B1 VH with N31R, L41P, K55N, L103F
# VL: B1 VL with T30N, Y31S, A52T, D92A, E93Q
# modifications: synthon TV on reduced interchain cysteines; average DAR 3.7 per ADC
# B31: AbA-WD (antibody, human IgG1, kappa, V domains shown)
# VH: B1 VH with N31R, L41P, K55N, L103F
# VL: B1 VL with T30N, Y31S, A52T, D92A, E93Q
# modifications: synthon WD on reduced interchain cysteines; average DAR 1.8 per ADC
# B32: AbA-LB (antibody, human IgG1, kappa, V domains shown)
# VH: B1 VH with N31R, L41P, K55N, L103F
# VL: B1 VL with T30N, Y31S, A52T, D92A, E93Q
# modifications: synthon LB on reduced interchain cysteines; average DAR 2.4 per ADC
# B33: AbB-WD (antibody, human IgG1, kappa, V domains shown)
# VH: B1 VH with L41P, L103F, Y105W
# VL: B1 VL with T30N, Y31S, A52T, D92A, E93Q
# modifications: synthon WD on reduced interchain cysteines; average DAR 1.6 per ADC
# B34: AbB-LB (antibody, human IgG1, kappa, V domains shown)
# VH: B1 VH with L41P, L103F, Y105W
# VL: B1 VL with T30N, Y31S, A52T, D92A, E93Q
# modifications: synthon LB on reduced interchain cysteines; average DAR 1.8 per ADC
# B35: AbG-WD (antibody, human IgG1, kappa, V domains shown)
# VH: B1 VH
# VL: B1 VL
# modifications: synthon WD on reduced interchain cysteines; average DAR 3.4 per ADC
# What was measured:
# [1] = target: human EGFR (huEGFR) over-expressed on mcl-1-/- mouse embryonic fibroblasts (human, UniProt P00533 25-1210); assay: cell-based or functional assay
# [2] = target: EGFR on EGFR positive non-small cell lung cancer cells NCI-H1650 (UniProt P00533 25-1210); assay: cell-based or functional assay
Binder,huEGFR+ mcl-1-/- MEF EC50 [1],H1650 CTG-3D EC50 [2],H1650 GFP Flourescence EC50 [2]
B1,7 nM,1.31 mg/L,1.38 mg/L
B2,1 nM,1.24 mg/L,0.63 mg/L
B3,96 nM,38.3 mg/L,38.2 mg/L
B4,0.2 nM,0.05 mg/L,0.12 mg/L
B5,65 nM,0.79 mg/L,0.36 mg/L
B6,45 nM,0.03 mg/L,0.16 mg/L
B7,0.6 nM,> 40 mg/L,8.53 mg/L
B8,161 nM,2.67 mg/L,1.68 mg/L
B9,8.9 nM,1.74 mg/L,1.36 mg/L
B10,37 nM,12.3 mg/L,10.4 mg/L
B11,224 nM,> 40 mg/L,> 40 mg/L
B12,5.9 nM,1.27 mg/L,0.88 mg/L
B13,11 nM,2.39 mg/L,3.72 mg/L
B14,2.4 nM,0.86 mg/L,0.74 mg/L
B15,51 nM,8.6 mg/L,7.73 mg/L
B16,4.6 nM,0.16 mg/L,0.59 mg/L
B17,3.4 nM,0.07 mg/L,0.25 mg/L
B18,5.3 nM,0.15 mg/L,0.51 mg/L

Binder,huEGFR+ mcl-1-/- MEF EC50 [1],H1650 CTG-3D EC50 [2],H1650 GFP Flourescence EC50 [2]
B19,16 nM,> 40 mg/L,13.9 mg/L
B20,2.6 nM,0.03 mg/L,0.04 mg/L
B21,> 500 nM,0.4 mg/L,1.1 mg/L
B22,220 nM,0.12 mg/L,0.17 mg/L
B23,108 nM,0.02 mg/L,0.03 mg/L
B24,0.1 nM,0.08 mg/L,0.21 mg/L
B25,0.79 nM,1.07 mg/L,1.47 mg/L
B26,0.15 nM,0.05 mg/L,0.16 mg/L
B27,47 nM,0.49 mg/L,1.09 mg/L
B28,3.4 nM,0.11 mg/L,0.16 mg/L
B29,0.4 nM,0.01 mg/L,0.06 mg/L
B30,3 nM,0.34 mg/L,0.69 mg/L
B31,304 nM,23.6 mg/L,7.62 mg/L
B32,27 nM,4.05 mg/L,2.48 mg/L
B33,23 nM,2.69 mg/L,1.01 mg/L
B34,31 nM,1.07 mg/L,2.38 mg/L
B35,5.8 nM,2.03 mg/L,0.36 mg/L
